# Assay results from PMC4232046, “The Janus transcription factor HapX controls fungal adaptation to both iron starvation and iron excess” (The EMBO Journal, 2014).
# B1: Aspergillus fumigatus HapX(24–158) (domain or fragment, UniProt Q4WER3 24-158, looked up)
# chain: SPSPGPGTPGSITSKEWVIPPRPKPGRKPATDTPPTKRKAQNRAAQRAFRERRAARVNELEEQIKKIEDEHEIHIAAFKEQITNLSREVEQCRSEMTWWRDRCHALEKEVSVERSAKEAIVKEFRSSLSDREAVR
# notes: Cloned in pMAL-c2X with an extended N-terminus including a TEV site; Theoretical mass of the dimer 31.36 kDa; also called peptide corresponding to residues 24–158 of HapX
# Biological target: the molecule itself
# Assay: SEC-MALS; static light scattering (miniDawn TREOS, Optilab T-rEX refractometer) after Superdex 200 10/300 GL; molar mass by ASTRA 6
protein,measurement,value
B1,stoichiometry N,2
